The values that follow come from article PMC5553292.

The assay addresses Recombinant human PDK2 (pyruvate dehydrogenase kinase 2) (human). In words: dynamic light scattering.

Usually stoichiometry N stands for the number of molecules, sites or subunits per partner or assembly. Turning to “Recombinant human PDK2 (pyruvate dehydrogenase kinase 2) (enzyme)”, the stoichiometry N came out at 2.
